From PMC12458545, “Repurposing a Detrimental Antibody Epitope as Targeted Therapeutics for Sepsis and Rheumatoid Arthritis” (Research Square, 2025)
“Also recorded” adds a separate entry of the source.

Key:
CLP-induced sepsis [1] = assay: CLP sepsis survival; format: in vivo, Balb/C mice
Protocol: Experimental sepsis was induced in Balb/C mice via cecal ligation and puncture (CLP) as previously described,[30],[37]. […] Briefly, mice were anesthetized intramuscularly with ketamine (75 mg/kg, Henry Schein Animal Health, Dublin, Ohio) and xylazine (10 mg/kg, Sigma-Aldrich) before a midline abdominal incision was made in the lower left abdomen. The cecum was ligated with a 4–0 silk suture at 50% of its length from the distal end, and punctured twice with a 21-gauge needle to induce moderate to severe sepsis. The cecum was returned to the abdominal cavity, and the incision was closed in layers. Approximately 30 min post-CLP, animals received imipenem/cilastatin (0.5 mg/mouse, Primaxin, Merck & Co., Inc.) and 1.0 mL of sterile saline for fluid resuscitation. Animals were randomized to control vehicle and experimental groups, administered P2 or P2–1 intraperitoneally at indicated doses and time points, and monitored for survival rates. To elucidate P2–1’s protective mechanisms, a separate group of Balb/C mice underwent CLP and received P2–1 (1.0 mg/kg) at 2 h and 20 h post-CLP. At 24 h post-CLP, animals were euthanized to collect blood and measure serum cytokines and chemokines using murine Cytokine Antibody Arrays.
All data were first assessed for normality using the Shapiro-Wilk test before applying the appropriate statistical analyses. All data are presented as mean ± standard error of the mean (SEM) unless otherwise specified. For comparison among multiple groups with non-normal (skewed) distribution, the Kruskal-Wallis ANOVA test followed by Dunn’s post-hoc test was used to evaluate statistical differences. Survival curves were analyzed using Kaplan-Meier method and compared using the nonparametric log-rank (Mantel-Cox) test. Statistical significance was defined as a P value less than 0.05.

water solubility = format: physicochemical
human PBMCs [2] = conditions: TN; cited from earlier work
Source text: To validate these RNA-seq findings, we quantified HMGB1-induced cytokine/chemokine protein levels using Cytokine Antibody Arrays.

TN peptides (P1-P10) = assay: dot blot epitope mapping of anti-TN mAbs with TN peptides P1-P10; format: binding, human; conditions: peptides 0.1 μg in 2.5 μl on nitrocellulose; mAb 1.0 μg/mL; chemiluminescence
Protocol: A library of ten synthetic peptides (P1-P10, fig. S1B) corresponding to C-terminus portion of TN protein (fig. S1A) were spotted (0.1 μg in 2.5 μl) onto nitrocellulose membranes (Thermo Scientific, Cat No. 88013). Membranes were blocked with 5% milk in PBS-T (PBS with 0.1% Tween-20) and then incubated with anti-TN monoclonal antibodies (mAb8 or mAb9, 1.0 μg/mL). After washing, membranes were incubated with HRP-conjugated goat anti-mouse IgG (Jackson ImmunoResearch), and signals were detected using chemiluminescence as described,[30].

CLP-induced sepsis [3] = conditions: anti-TN mAbs; mice; cited from earlier work
[4] = target: T1, P5 peptide of tetranectin (Homo sapiens, UniProt P05452); assay: far-Western, overlay or dot blot; synthetic TN peptides P1-P10 spotted (0.1 μg in 2.5 μl) on nitrocellulose, blocked with 5% milk in PBS-T; mAb8 or mAb9 at 1.0 μg/mL; HRP goat anti-mouse IgG, chemiluminescence; conditions: both partners purified
T1 construct: synthetic peptide from the C-terminal portion (CRD) of human tetranectin; S1A, S1B; source: synthetic peptide
T1 chain: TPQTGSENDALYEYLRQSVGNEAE

human PBMCs [5] = assay: RNA-seq of HMGB1-stimulated PBMCs; format: cell-based; conditions: HMGB1 stimulation alone
Protocol: (§1) Human blood was purchased from the New York Blood Center (Long Island City, NY, USA), and PBMCs were isolated by density gradient centrifugation through Ficoll (Ficoll-Paque PLUS) as previously described,[30]. PBMCs were cultured in RPMI-1640 supplemented with 10% human serum, 2 mM L-glutamine, 100 U/mL penicillin, and 100 μg/mL streptomycin (all from Invitrogen). For experiments, PBMCs were stimulated with recombinant human HMGB1 (0.5 or 2.0 μg/ml) for 16 hours, either alone or in combination with P2–1 at 5.0 or 10.0 μg/ml. Cell-free supernatants were collected for analysis of cytokines/chemokines levels by Cytokine Antibody Arrays, or pCTS-L levels by Western blotting analysis as described.
Total RNA was isolated from human PBMCs stimulated with HMGB1 in the absence or presence of P2–1 (5.0 or 10.0 μg/ml) using the RNeasy Mini Kit (Qiagen) according to the manufacturer’s instructions. RNA quantity and quality were assessed using a NanoDrop spectrophotometer and an Agilent Bioanalyzer. cDNA libraries were prepared using the TruSeq RNA Library Prep Kit v2 (Illumina) and sequenced on an Illumina NovaSeq 6000 platform to generate 100 bp paired-end reads. Raw sequencing reads were quality-checked using FastQC, trimmed with Trimmomatic, and aligned to the human reference genome (GRCh38) using HISAT2. Gene counts were quantified using StringTie and DESeq2 was used for differential gene expression analysis. Volcano plots and heatmaps were generated using ggplot2 and pheatmap packages in R, respectively. Genes with an adjusted P-value < 0.05 and a |log2-fold change| > 1 were considered differentially expressed.

human PBMCs [6] = assay: HMGB1-induced cytokine/chemokine secretion, Cytokine Antibody Arrays; format: cell-based; conditions: HMGB1 0.5 or 2.0 μg/ml alone, 16 h
Protocol: as §1
Levels of cytokines and chemokines in mouse serum and joint tissue lysates, or human PBMC culture supernatants were determined using murine or human Cytokine Antibody Arrays (e.g., Cat. No. M0308003 or Cat. No. AAH-CYT-3–4, RayBiotech Inc., Norcross, GA, USA) as previously described,[30],[86],[87]. Serum samples were collected from mice at 24 h post-CLP. The soft tissue of the hindpaw and ankle joints was carefully collected using a previously described protocol. Briefly, 0.5 g of fresh soft tissue was cut into 3 mm pieces, and mixed with 400 μL of a hypertonic solution (500 mL PBS with 4.5 g NaCl and 2× protease inhibitor cocktail) in a 10 mL syringe. Mechanical extrusion, involving 30 rapid back-and-forth movements of the plunger, was then performed. The expelled extracellular fluid was collected, immediately aliquoted, and stored at −20°C until analysis. Cell-conditioned medium was collected from PBMC cultures after 16 h of stimulation. Arrays were performed according to the manufacturer’s protocol, followed by chemiluminescent detection and densitometric quantification as previously described,[30].

human PBMCs [7] = assay: HMGB1-induced pCTS-L secretion, Western blot; format: cell-based; conditions: HMGB1 alone
Protocol: as §1
Cell-conditioned medium from human PBMC cultures was collected, and concentrated using Amicon Ultra Centrifugal Filters. Equal volumes of conditioned medium, representing equivalent numbers of cells, were resolved on sodium dodecyl sulfate (SDS)-polyacrylamide gels and transferred to polyvinylidene difluoride (PVDF) membranes. After blocking with 5% nonfat milk in Tris-buffered saline with 0.1% Tween 20 (TBST), membranes were probed with a home-made primary monoclonal antibody against pCTS-L (e.g., mAb2, 1:1000) overnight as previously described. After washing, membranes were incubated with a horseradish peroxidase-conjugated secondary antibody. Protein bands were visualized using enhanced chemiluminescence (ECL) substrate (Pierce) and detected with a chemiluminescence imaging system (e.g., Bio-Rad ChemiDoc MP). The relative levels of specific proteins were determined using the UN-SCAN-IT Gel Analysis Software Version 7.1 (Silk Scientific Inc., Orem, UT, USA) and expressed in arbitrary units (AU).

Molecule: 55-KVHMKCFLAFTQTKTF-70 [P2]
- survival (CLP-induced sepsis [1]; P2 5.0 mg/kg at 2 h and 24 h post-CLP, 5 mg/kg): significantly increased survival rates in both male and female mice; also recorded: significantly increased animal survival
- animal survival (# of Survivors) (CLP-induced sepsis [1]; P2 5.0 mg/kg i.p. at 2 h and 24 h post-CLP, male and female mice, P < 0.05 vs. vehicle): 60%
- water solubility (water solubility): poor water solubility

B1: TN: full-length human tetranectin (residues 1-181) (protein, UniProt P05452 22-202, looked up)
Tetranectin: EPPTQKPKKIVNAKKDVVNTKMFEELKSRLDTLAQEVALLKEQQALQTVCLKGTKVHMKCFLAFTQTKTFHEASEDCISRGGTLGTPQTGSENDALYEYLRQSVGNEAEIWLGLNDMAAEGTWVDMTGARIAYKNWETEITAQPDGGKTENCAVLSGAANGKWFDKRCRDQLPYICQFGIV
- HMGB1-induced cytokines (e.g., IL-6) and chemokines (e.g., MCP-1) (human PBMCs [2]): did not affect HMGB1-induced cytokines (e.g., IL-6) and chemokines (e.g., MCP-1)

B2: anti-tetranectin monoclonal antibody mAb8 (antibody, V domains shown)
VH: DVNLVESGGGLVKLGGSLKLSCADSGFTFSSYYMSWVRQTPEKRLELVAAINSNGGRTYYPDTVKGRFTISRDNAKNTLYLQMSSLKSEDTALYYCARQGKNGLDYWGQGTSVTVSS
VL: DIQMTQTTSSLSASLGDRVTISCRASQDISNHLNWYQQKPDGTIKLLIYYTSRLHSGVPSRFSGSGSGTDFSLSISNLEQEDIATYFCQQGKTLPPTFGGGTKLEIK
notes: mouse monoclonal antibody; also called protective anti-TN mAb; source: generated in Balb/C and C57BL/6 mice as previously described [6,30]; hybridoma
- TN peptide bound in dot blot (TN peptides (P1-P10)): targeted P5; also recorded: binds P5
- effect on septic survival/lethality (CLP-induced sepsis [3]): protected mice against sepsis
- binding result [4]: binds

B3: HMGB1: recombinant human HMGB1 expressed in E. coli; PBMC stimulus and SPR target (protein)
chain: MGKGDPKKPRGKMSSYAFFVQTCREEHKKKHPDASVNFSEFSKKCSERWKTMSAKEKGKFEDMAKADKARYEREMKTYIPPKGETKKKFKDPNAPKRPPSAFFLFCSEYRPKIKGEHPGLSIGDVAKKLGEMWNNTAADDKQPYEKKAAKLKEKYEKDIAAYRAKGKPDAAKKGVVKAEKSKKKKEEEEDEEDEEDEEEEEDEEDEDEEEDDDDE
- gene expression of inflammatory cytokines and chemokines (human PBMCs [5]): profoundly upregulated many inflammatory cytokines
- cytokine and chemokine protein levels (e.g., TNF, IL-6, IL-10, CXCL5, CXCL1, CXCL8, CCL2, CCL7) (human PBMCs [6]): significantly increased protein levels of various cytokines
- pCTS-L expression and secretion (human PBMCs [7]): induced pCTS-L expression and secretion in human immune cells
